Measurements reported in the supplement of paper PMC9170038.

System: K4 kissing-loop RNA reporter
Assay: apparent KD of K4 kissing-loop reporter; higher = weaker reporter binding
Details: Eterna round: R107
Experimental: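 RNA-MaP round R107: designed RNA switches with theophylline, tryptophan, arginine or FMN aptamers are transcribed on-chip within common flanks. They are titrated with a labelled K4 kissing-loop RNA reporter in RNA-MaP buffer (100 mM Tris pH 7.5, 80 mM KCl, 4 mM MgCl2), without ligand or with the indicated ligand. Median apparent KD per design.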

[1] = input ligand: theophylline 20 uM
[2] = input ligand: tryptophan 2.4 mM
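Note: bound reporter read as fluorescence of individual clusters on recovered sequencing chips by microscopy, with normalized cluster intensities fitted with a binding model.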

Sequence | apparent KD of K4 kissing-loop reporter (input ligand: FMN 200 uM) | apparent KD of K4 kissing-loop reporter (input ligand: arginine 13.2 mM) | apparent KD of K4 kissing-loop reporter (input ligand: none) | apparent KD of K4 kissing-loop reporter [1] | apparent KD of K4 kissing-loop reporter [2]
CGUAGAUACUGAGGAUAUCAGAAAUCUGAUAUCAUCAGAGGUCUGAGUGAUGUUCAGAUGCGACUCUGAGAAGGCAGUAGGAGUC [FMN B Ex t2] | 134 nM | 107 nM | 131 nM | 123 nM | 115 nM
CGUGAGUGCCGACGGUCAUCGGUCCAUGCACGAGGACCGGUACGGCCGCCACUCGAGCGUGGCAGUGAUGUUGCCAGCGCACUAA [Oninvexece] | 114 nM | 89.5 nM | 101 nM | 98.5 nM | 85.6 nM
CGUGCCCAGCCGGAUACCAGUGACCCGCUGGGAACCGCGGGCCCAGAGUGAUGUUCGGGACACCCUUGGCAGCCGCCUGGGCGGU [#2 Same State - Theophylline B Attempt #11 (HarryS)] | 1170 nM | 343 nM | 584 nM | 1190 nM | 791 nM
CGUUUAUAGCAGGAUACCAGUACCCAUAAAGUACGUUAAUAGUAGAGUGAUGUUCUAAAGUACCCUUGGCAGCUUCCCGUGACCG [ExTheophylB.V] | 106 nM | 158 nM | 129 nM | 142 nM | 83.3 nM
CGUUUAUAGCAGGAUACCAGUACCCAUAAAGUACGUUAAUAGUAGAGUGAUGUUCUAAAGUACCCUUGGCAGCUUCCCGUGACUG [ExTheophylB.U] | 65.3 nM | 116 nM | 79.5 nM | 99.8 nM | 52.9 nM
CGUUUAUAGCAGGAUACCAGUACCCAUAAAGUACGUUAAUAGUAGAGUGAUGUUCUAAAGUACCCUUGGCAGCUUCGAGUGAGUG [ExTheophylB.R] | 72.5 nM | 114 nM | 85.1 nM | 103 nM | 54 nM
CUAGGUAACACAGGAUAUGUCCGAGUGAUGUUCGAGCCUUUCCAUUGACGAAAUUAAUGGUGGGUGACAGAAGGGUGAGUACUGA [Uses] | 457 nM | 640 nM | 1090 nM | 640 nM | 828 nM
CUAUCGGUGCCAGUGAUGUUGGUACCGCCACGAGGACCGGUACGGCCGCCACUCGCAUUAGAUGAUCACACAGUGUAUACUGCUA [Aleusorza] | 139 nM | 128 nM | 135 nM | 159 nM | 122 nM
CUCAAACCGUGGGCAUUUCGCAAAGUAGAUACCAGUCGCAACGGUGACCCUUGGCAGCUAGUAAAGUGAUGUUUUAUCGGCACCA [theeternabot_exclusion_KL_Theo_A_35] | 78.4 nM | 80.4 nM | 78 nM | 78.6 nM | 69.1 nM
CUCACGCUCACAGAUACCAGUGGUGAUCCGGAUUGUAGUGAUGUUAAUUCCGCCAUCAUACACCCUUGGCAGCUGGCGUCACCUU [theeternabot_sameState_KL_Theo_B_31] | 799 nM | 417 nM | 654 nM | 871 nM | 715 nM
CUCGAGUGAUGUUCGACGCGUCCGUACGAUACCAGCGUAGACCGUCGCCCUUGGCAGCGUGAUGCAGCCCGAAAGUCCGGUUCCU [theeternabot_sameState_KL_Theo_A_26] | 1160 nM | 833 nM | 1430 nM | 1120 nM | 1070 nM
CUCGUGGGUUUGAGAGGGCUUGUGGGAAGUGAGGAUAUUUAGGGAGAAAGAAGGCACUAUAGAAUAUAGUGAUGUUAUAUAUGGG [SSFMNA.Q] | 313 nM | 109 nM | 264 nM | 69.3 nM | 256 nM
CUGCAACAUAACUUCUUCGUCCUAGAAGACUAGGAUAUCAGGAAACUGAGAAGGAGUCUCUGCAGUGAUGUUGCAGUUAGGACGA [KL-SSFMN-A7] | 139 nM | 135 nM | 115 nM | 160 nM | 138 nM
CUGUACAUCUCGGCCGCCACUGACCUAAGUGAUGUUAGGAAUGAAACCUAGUGAUGUUAGCAAACCAGGACCGGGAGGUGUGCAG [KL-SSTryp-B4 #Double Kiss] | 110 nM | 33.4 nM | 83.2 nM | 40.2 nM | 51.8 nM
CUUAAGGAGUGUCGUGCCGGACACUGGGAAGGAGCGCAAUUCUUUGCAGGUAGGUCGCCCAGUGAUGUUGGGUCUCGCUGUCGAA [KL-XArg-A20] | 139 nM | 253 nM | 204 nM | 376 nM | 285 nM
CUUAUGGACUAAGGAUAUGGGUAUACCGGAAGCGCCGUCACGGUAGUGAUGUUACACGCGACGGGACCAGAAGGUAGAUCGCUCC [theeternabot_exclusion_KL_FMN_B_33] | 73.9 nM | 96.2 nM | 101 nM | 71.3 nM | 85.5 nM
